The data set in a line: total protein half-life in vivo (active degradation + dilution); higher = more stable protein.
Setting [1] is: E. coli NCM3722 delta-clpP delta-lon delta-hslV, growth: N-lim chemostat, doubling time 6 h.
Setting [2] is: E. coli NCM3722 delta-clpP, growth: N-lim chemostat, doubling time 6 h.
The mark [3] stands for this setting: E. coli NCM3722 delta-hslV, growth: N-lim chemostat, doubling time 6 h.
Where [4] appears, read: E. coli NCM3722 delta-lon, growth: N-lim chemostat, doubling time 6 h.
The mark [5] stands for this setting: E. coli NCM3722 delta-smpB, growth: N-lim chemostat, doubling time 6 h.
The mark [6] stands for this setting: wild type E. coli NCM3722, growth: C-lim chemostat, doubling time 3 h.
[7] abbreviates: wild type E. coli NCM3722, growth: C-lim chemostat, doubling time 6 h.
The mark [8] stands for this setting: wild type E. coli NCM3722, growth: C-lim chemostat, doubling time 12 h.
Where [9] appears, read: wild type E. coli NCM3722, growth: N-lim chemostat, doubling time 6 h.
Setting [10] is: wild type E. coli NCM3722, growth: N-lim chemostat, doubling time 12 h.
Where [11] appears, read: wild type E. coli NCM3722, growth: P-lim chemostat, doubling time 6 h.
Setting [12] is: wild type E. coli NCM3722, growth: P-lim chemostat, doubling time 12 h.

± gives the standard deviation of the averaged measurements.

With “MSRIIMLIPTGTSVGLTSVSLGVIRAMERKGVRLSVFKPIAQPRTGGDAPDQTTTIVRANSSTTTAAEPLKMSYVEGLLSSNQKDVLMEEIVANYHANTKDAEVVLVEGLVPTRKHQFAQSLNYEIAKTLNAEIVFVMSQGTDTPEQLKERIELTRNSFGGAKNTNITGVIVNKLNAPVDEQGRTRPDLSEIFDDSSKAKVNNVDPAKLQESSPLPVLGAVPWSFDLIATRAIDMARHLNATIINEGDINTRRVKSVTFCARSIPHMLEHFRAGSLLVTSADRPDVLVAACLAAMNGVEIGALLLTGGYEMDARISKLCERAFATGLPVFMVNTNTWQTSLSLQSFNLEVPVDDHERIEKVQEYVANYINADWIESLTATSERSRRLSPPAFRYQLTELARKAGKRIVLPEGDEPRTVKAAAICAERGIATCVLLGNPAEINRVAASQGVELGAGIEIVDPEVVRESYVGRLVELRKNKGMTETVAREQLEDNVVLGTLMLEQDEVDGLVSGAVHTTANTIRPPLQLIKTAPGSSLVSSVFFMLLPEQVYVYGDCAINPDPTAEQLAEIAIQSADSAAAFGIEPRVAMLSYSTGTSGAGSDVEKVREATRLAQEKRPDLMIDGPLQYDAAVMADVAKSKAPNSPVAGRATVFIFPDLNTGNTTYKAVQRSADLISIGPMLQGMRKPVNDLSRGALVDDIVYTIALTAIQSAQQQ [P0A9M8]”, the “total protein half-life in vivo” value by setting is: under setting [1], 6.116 ± 0.01 h; under setting [2], 5.89 ± 0.68 h; under setting [3], 6.22 ± 0.38 h; under setting [4], 6.08 ± 0.32 h; under setting [5], 5.973 ± 0.042 h; under setting [6], 3.14 ± 0.039 h. The “total protein half-life in vivo” value worked out at 5.61 ± 0.24 h under setting [7]; 11 ± 0.26 h under setting [8]; 6.14 ± 0.12 h under setting [9]; 11.99 ± 0.054 h under setting [10]; 6.32 ± 0.58 h under setting [11]; 11.8 ± 0.43 h under setting [12].

Take “MSNTPIELKGSSFTLSVVHLHEAEPKVIHQALEDKIAQAPAFLKHAPVVLNVSALEDPVNWSAMHKAVSATGLRVIGVSGCKDAQLKAEIEKMGLPILTEGKEKAPRPAPTPQAPAQNTTPVTKTRLIDTPVRSGQRIYAPQCDLIVTSHVSAGAELIADGNIHVYGMMRGRALAGASGDRETQIFCTNLMAELVSIAGEYWLSDQIPAEFYGKAARLQLVENALTVQPLN”: the “total protein half-life in vivo” value is, setting by setting: under setting [1], 5.53 ± 0.29 h; under setting [2], 5 ± 0.28 h; under setting [3], 5.32 ± 0.053 h; under setting [4], 5.84 ± 0.27 h; under setting [5], 4.34 ± 0.23 h; under setting [6], 2.977 ± 0.015 h. Also, the “total protein half-life in vivo” value under setting [7] was 5.72 ± 0.27 h; the “total protein half-life in vivo” value under setting [8] was found to be 9.85 ± 0.83 h; the “total protein half-life in vivo” value under setting [9] worked out at 5.25 ± 0.7 h; the “total protein half-life in vivo” value under setting [10] is 8.75 ± 0.6 h; the “total protein half-life in vivo” value under setting [11] came out at 5.44 ± 0.24 h; the “total protein half-life in vivo” value under setting [12] was determined as 11.2 ± 1 h.

On to “MLAQLTISNFAIVRELEIDFHSGMTVITGETGAGKSIAIDALGLCLGGRAEADMVRTGAARADLCARFSLKDTPAALRWLEENQLEDGHECLLRRVISSDGRSRGFINGTAVPLSQLRELGQLLIQIHGQHAHQLLTKPEHQKFLLDGYANETSLLQEMTARYQLWHQSCRDLAHHQQLSQERAARAELLQYQLKELNEFNPQPGEFEQIDEEYKRLANSGQLLTTSQNALALMADGEDANLQSQLYTAKQLVSELIGMDSKLSGVLDMLEEATIQIAEASDELRHYCDRLDLDPNRLFELEQRISKQISLARKHHVSPEALPQYYQSLLEEQQQLDDQADSQETLALAVTKHHQQALEIARALHQQRQQYAEELAQLITDSMHALSMPHGQFTIDVKFDEHHLGADGADRIEFRVTTNPGQPMQPIAKVASGGELSRIALAIQVITARKMETPALIFDEVDVGISGPTAAVVGKLLRQLGESTQVMCVTHLPQVAGCGHQHYFVSKETDGAMTETHMQSLNKKARLQELARLLGGSEVTRNTLANAKELLAA”, for which the “total protein half-life in vivo” value by setting is: under setting [1], 5.03 ± 0.093 h; under setting [2], 3.53 ± 0.12 h; under setting [12], 2.48 h.

Regarding “MRRTFIKKEGVVITTLARYLLGEKCGNRLKTIDELANECRSSVGLTQAALKTLESSGAIRIERRGRNGSYLVEMDNKALLTHVDINNVVCAMPLPYTRLYEGLASGLKAQFDGIPFYYAHMRGADIRVECLLNGVYDMAVVSRLAAESYLTQKGLCLALELGPHTYVGEHQLICRKGESANVKRVGLDNRSADQKIMTDVFFGGSDVERVDLSYHESLQRIVKGDVDAVIWNVVAENELTMLGLEATPLTDDPRFLQATEAVVLTRVDDYPMQQLLRAVVDKHALLAHQQRVVSGEQEPSY”, the “total protein half-life in vivo” value was 6.2 ± 0.085 h under setting [1]; 5.94 ± 0.07 h under setting [2]; 5.34 ± 0.15 h under setting [3]; 5.75 ± 0.52 h under setting [4]; 4.78 ± 0.41 h under setting [5]; 2.78 ± 0.093 h under setting [6]. For the same sequence, the “total protein half-life in vivo” value is, setting by setting: under setting [7], 5.3 ± 0.1 h; under setting [8], 7.63 ± 2.6 h; under setting [9], 4.68 ± 0.65 h; under setting [10], 9.45 ± 0.82 h; under setting [11], 5.166 ± 0.0084 h; under setting [12], 9.42 ± 0.63 h.

The record behind these values is the supplement of paper PMC11246515.
